Biological target: PSD-95 PDZ1 mutant (ED6N) (UniProt P78352)
Assay: ITC

Sequence of PSD-95 PDZ1 mutant (ED6N) (P78352 60-151, change not shown): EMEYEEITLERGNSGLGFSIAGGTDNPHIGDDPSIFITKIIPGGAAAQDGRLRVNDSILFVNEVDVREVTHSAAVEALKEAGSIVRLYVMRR

fold weakening of binding against PDZ1 WT: 8 fold
B1: Stg_CT WT (domain or fragment)
chain: DRHKQLRATARATDYLQASAITRIPSYRYRYQRRSRSSSRSTEPSHSRDASPVGVKGFNTLPSTEISMYTLSRDPLKAATTPTATYNSDRDNSFLQVHNCIQKDSKDSLHANTANRRTTPV

— article PMC6842113
